Assay results taken from paper PMC4559223 (Journal of molecular biology, 2008).

B1: mouse GATA3 C-terminal zinc finger (amino acid residues 308-370) (domain or fragment, UniProt P23772 308-370, looked up)
chain: SAARRAGTSCANCQTTTTTLWRRNANGDPVCNACGLYYKLHNINRPLTMKKEGIQTRNRKMSS
B2: mouse GATA3 double zinc finger fragment (amino acids 260-370) (domain or fragment)
chain: not shown

Columns and labels:
[1] = biological target: the molecule itself; experiment: crystal structure
[2] = biological target: the molecule itself; experiment: native gel or EMSA

Row | Protein | binding result [1] | binding result [2]
1 | B1 | binds | 
2 | B2 |  | binds
